Laboratory results published in paper doi:10.1101/2021.03.19.436134.
“And” between values parts separate entries of the source, which are not always exact repeats. Equal entries are not always repeated.

Tests used:
[1] = molecular target: PfArlH^S109C, single cysteine mutant of Pyrococcus furiosus ArlH labelled with Atto550 and Atto647N, non-phosphorylated (Pyrococcus furiosus); experiment: single-molecule TIRF photobleaching step counting
[2] = molecular target: biotinylated PfArlI, ArlI motor ATPase of Pyrococcus furiosus with AviTag, unlabelled, immobilised (Pyrococcus furiosus); experiment: single-molecule TIRF photobleaching step counting
[3] = molecular target: SaArlH, ArlH of Sulfolobus acidocaldarius, His-tagged, non-phosphorylated (Sulfolobus acidocaldarius); experiment: BLI
[4] = molecular target: labelled, biotinylated PfArlI^C290S/T411C (Pyrococcus furiosus); experiment: single-molecule TIRF photobleaching step counting

“PfArlH^S109C, single cysteine mutant of Pyrococcus furiosus ArlH labelled with Atto550 and Atto647N, non-phosphorylated (natural protein)” was tested, and the stoichiometry N [1] was 6 and 3 and the stoichiometry N [2] was 1.
In the case of “SaArlI, ArlI motor ATPase of Sulfolobus acidocaldarius (Strep-SaArlI) (enzyme)”, the Kd [3] is reported as 638 nM.
“labelled, biotinylated PfArlI^C290S/T411C (enzyme)” was tested, and the stoichiometry N [4] was 3 and 2 and 6.
